{"source": "FireProtDB (doi:10.1110/ps.8.7.1530)", "proteins": {"B1": {"name": "PTS system mannose-specific EIIAB component wild type, P69797 (protein)", "chain": "MTIAIVIGTHGWAAEQLLKTAEMLLGEQENVGWIDFVPGENAETLIEKYNAQLAKLDTTKGVLFLVDTWGGSPFNAASRIVVDKEHYEVIAGVNIPMLVETLMARDDDPSFDELVALAVETGREGVKALKAKPVEKAAPAPAAAAPKAAPTPAKPMGPNDYMVIGLARIDDRLIHGQVATRWTKETNVSRIIVVSDEVAADTVRKTLLTQVAPPGVTAHVVDVAKMIRVYNNPKYAGERVMLLFTNPTDVERLVEGGVKITSVNVGGMAFRQGKTQVNNAVSVDEKDIEAFKKLNARGIELEVRKVSTDPKLKMMDLISKIDK"}}, "details": "Escherichia coli (strain K12); pH 7.4; 22 °C; GdnHCl; Fluorescence; Sodium phosphate 20 mM; reversible: yes; whole UniProt chain shown", "data": [{"protein": "B1", "values": [{"measurement": "denaturant midpoint (higher = more stable)", "result": 2.3, "unit": "M"}, {"measurement": "unfolding free energy", "result": 10.5, "unit": "kcal/mol"}]}]}
